Source: a protein production outcome set (Wang et al. 2014)

Assay: label from the status in PepcDB records
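Note: failed if final PepcDB status was selected cloned or expressed and not failed if soluble or beyond.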

SEAEGNQVYFAVYTFKARNPNELSVSANQKLKILEFKDVTGNTEWWLAEVNGKKGYVPSNYIRKTE
protein production: not failed

MNHPDLAGKVAIVTGAGAGIGLAVARRLADEGCHVLCADIDGDAADAAATKIGCGAAACRVDVSDEQQIIAMVDACVAAFGGVDKLVANAGVVHLASLIDTTVEDFDRVIAINLRGAWLCTKHAAPRMIERGGGAIVNLSSLAGQVAVGGTGAYGMSKAGIIQLSRITAAELRSSGIRSNTLLPAFVDTPMQQTAMAMFDGALGAGGARSMIARLQGRMAAPEEMAGIVVFLLSDDASMITGTTQIADGGTIAALW
protein production: not failed

MYYNIALAYTHLDIHHLAIHFVNMALEGFRSEYKFRNIINCQILIAVSYTEKGQYEEALKMYESILREATSFADKDVLLAITLSNMGSIYYKKGKYQQAKKYYLDSLQLQKQIDLNYLDTIYEMALVCIKLEELEEARTLIDKGIDAAKQEERFNAKLYLLLMLRYKYFEEAKDYKAFLENEAIPLYKSAGNKIELKKVYVELAEHFSSLSRFEESNRYYRLVIDLMNDNKEE
protein production: failed

INVRLKFLNDTEELAVARPEDTVGTLKSKYFPGQESQMKLIYQGRLLQDPARTLSSLNITNNCVIHCHRSPPGAAVSGPSAS
protein production: not failed

EDDKLKSVEALRQKGNELFVQKDYKEAIDAYRDALTRLDTLILREKPGEPEWVELDRKNIPLYANMSQCYLNIGDLHEAEETSSEVLKREETNEKALFRRAKARIAAWKLDEAEEDLKLLLRNHPAAASVVAREMKIVTERRAEKKADSRVTYSKMFQP
protein production: not failed

MYDLRPRTLTFLEVALPPTTDTTPIFSLLFFSQCSVFKGFSRSTSSAEAGGVLGGSTRVLICSVSSLVKIEDCKVKIFDKLSEKAEKVLEIGIGTGPNMRYYAARNSNVTLYGLDPNPKMKKYARKSATKAGLKPKNFRFKQGVGEAIPLKDNSVDAVVATLVLCSVSDVTQTLKEIKRVLRQGGVFIFLEHVAAKDGSFFKRLQKLLDPLQQRLADGCHLARNTRECILEAGFSGGVEVQTFSMYSFPWMTRPHIYGLAYN
protein production: not failed

MKRSIAPLLVCPACLPKERPLELTATAEADGDITAGHLSCKGCRRRFPIRDGIAVLLPDPDTGPSGGQWKYEEQGTLATYLWSHFADLAGDPEAGDAYASWASALAGNAETSLDAGCAVGRLTFELGQRSGLAVGFDLSLTFIRAARQLARERQIRFSLPREGNLRDEFRLTLPDCWRTDEVEFVVADALAIPFARETFDRTASLNLIDRVSYPLAHLYEMNRVARLSGASFLLSDPFSWSTANAPEEKWLGGTESGPYSGRGMDNVKAILGGKEAIIAPPWTVAREGSVWWKIRSHRNHFELIRSEFLVAERLEHHHHHH
protein production: failed

MKLKNILIVVDNIEESIHFYNELFGLNVISRQEGNVIMSEGLVLQDAGIWKESMQIQTIPYNNMTELYFEDNDIEGVVKKLESGRYEVRYATALTELDGGQKLVRFYDQSGNLIEVRTPWDKFVNRE
protein production: failed

MKAGLIMRHDVMSILHAFCMIAENHSFTRAAAQLHISTSALSQNMRQLEDELGVKLLNRTTRRVGLTEAGHAFLASIRPALAHIDEAMEHARQSRDIPGGTLRLTVPRTAATLLLQPNLAGFMRDYPDIRLDIDVNDGFVDLINERFDAGIRFGDAVQLDMNVVPLGDVLRPAIVASPAYLARFGTPLHPQELINHRCLCHRFTRESGLYRWEFVHGAQRLEITPEAALMVNDKALRLSAARDGAGLTYVFEQDVHEDLQDGRLCSVLEEWLPAADRFYLYYPGRAHMAPKLRVFIDYFCHKAILPSQQSHHR
protein production: failed

MGHHHHHHSHMNSCILQATVVEAPQLRYTQDNQTPVAEMVVQFPGLSSKDAPARLKVVGWGAVAQELQDRCRLNDEVVLEGRLRINSLLKPDGNREKQTELTVTRVHH
protein production: not failed

MFKSPENDSLVSAVFDSSPIGIQIIDLETGMREKINQTACVLLGDTKDNLMAKSVFEDCTWLGKDKFLFVIERLKENKTLKNHIVQFENHQGNELTISYDISEFKYRSKRLVTVSMNDVT
protein production: failed

MTYVLYGIKACDTMKKARTWLDEHKVAYDFHDYKAVGIDREHLRRWCAEHGWQTVLNRAGTTFRKLDEAQKADLDEAKAIELMLAQPSMIKRPVLELGGRTLVGFKPDAYAAALA
protein production: not failed

MLVCAAFSGGAGASDAGALLEAARRGDTAQVASLLERKVEVDAPSADGSTPLLLATANDHLAVARQLIEAGADVNRQNSRLDSPYLLAGAEGRLEILRLTLLHGADLKSTNRYGGTALIPACERGHVEVVKTLLQAGVDPNHVNKLGWTGLLEAILLSDGGPRHQEIVRLLIDAGADVNLADADGVSPLAHARQRGQGGIERLLLAAGAQ
protein production: failed

MLTTQITQTYHLTTPIISAGMAFVATPKLAAAVSNAGGMGTFSAFMSPPEELRALIRQTRSLSDRPFGIDFITAAANDDHIAICMAERVPVVIFFWSFPPLDWVTQLQNAGVKVWMQVGSLAEATQAKAQGFDAIIAQGQEGGGHNRSEASIFSLLPAICREVAPIPVIAAGGIIDGRGLVAALALGAEAVWCGTRFLASEEAYAHPEYKARVVTATVGDTTRTTLFGPEMPGQLMRVLRNLAVNQWGDRVADATKHGPTQPAIGSTILGGQALPMPKFSAILPTPDTSGDFEEMCLTAGESSGNITAIKSARDILWEMENEALDLLTYRLQAITKEQNLMAAG
protein production: failed

DPKEGVQYEVLSTSLENDGMAPVTEVFALSCGHCRNMENFLPVISQEAGTDIGKMHITFNQSAHIASMFYYAAEMQVDGAPDHAFMEDLFAATQMGEGTTLTEQQEAYSKAFTSRGLVSPYDFNEEQRDTLIKKVDNAKMLSEKSGISSVPTFVVNGKYNVLIGGHDDPKQIADTIRYLLEK
protein production: not failed

ARYLDVTSRRDPEHSHRTYYVTGQVFFASADRFTASFDLREKVETLAIDLREAHFWDITAVAALDKVVLKLRRAGISVDVVGMNRATATLVDRFGVHDKPDGIDSLMGH
protein production: failed

MVCCPVNENAAALVVSDGRVMIWELKSAVCNRNSRNSSSGVSPLYSPVSFCGIPVGVLQNKLPDLSLDNMIGQSAIAGEEHPRGSILREVHLKFLLTGLLSGLPAPQFAIRMCPPLTTKNIKMYQPLLAVGTSNGSVLVYHLTSGLLHKELSIHSCEVKGIEWTSLTSFLSFATSTPNNMGLVRNELQLVDLPTGRSIAFRGERGNDESAIEMIKVSHLKQYLAVVFRDKPLELWDVRTCTLLREMSKNFPTITALEWSPSHNLKSLRKKQLATREAMARQTVVSDTELSIVESSVISLLQEAESKSELSQNISARGHFVFTDIDGQVYHLTVEGNSVKDSARIPPDGSMGSITCIAWKGDTLVLGDMDGNLNFWDLKGRVSRGIPTHRSWVRKIRFAPGKGNQKLIAMYNDGAEVWDTKEVQMVSSLRSGRNVTFRILDVDWCTSDKVILASDDGCIRVLEMSMKSACFRMDEQELTEPVWCPYLLVPRASLALKAFLLHQPWNGQYSLDISHVDYPENEEIKNLLQEQLNSLSNDIKKLLLDPEFTLLQRCLLVSRLYGDESELHFWTVAAHYLHSLSQEKSASTTAPKEAAPRDKLSNPLDICYNVLCENAYFQKFQLERVNLQEVKRSTYDHTRKCTDQLLLLGQTDRAVQLLLETSADNQHYYCDSLKACLVTTVTSSGPSQSTIKLVATNMIANGKLAEGVQLLCLIDKAADACRYLQTYGEWNRAAWLAKVRLNPEECADVLRRWVDHLCSPQVNQKSKALLVLLSLGCFFSVAETLHSMRYFDRAALFVEACLKYGAFEVTEDTEKLITAIYADYARSLKNLGFKQGAVLFASKAGAAGKDLLNELESPKEEPIEE
protein production: failed

NAMVLREDIDKLKLLAQQFEQELQAYNTRIGNLETRIAYLEDRQFSVTTKLTGDSIWVLSGVGGSEQADGPPDQPVQNGEVTVNFRQRINFNTSFSGEDNLLIRLQSANFFLARGGSNLTDFNFAATEEQGNVNINKMQYSFPVGDRARIWLAGNRITMDDIMDPLAPYTNSFTDGAVSFFGAIAPIYLPNDNSGPGAGFSYNFTDDLSLGGFYSAGKGFSPNQSEGLFNGQFGVGAQLNYVPAANTGVAFSYLHNYIPQGQYDSFSALGYTGLANTDNPFDDAASSTNHYAVIWTWQLADWFSLEGWGMYSDATAKSGDRQGDTADIWNWKVSLAFPDLGKEGNVGVVSVGQPPYASFISNNNNVPDITPATTDAPWFVETFYLYQFNDNISLTPAFWIGINPANGRDPLWVAALRTSFKF
protein production: failed

MERDQHIRIIYKLIIVLLVLLIIYVVVQLADLWVPFVYVLKRLLIPLGLAAIITYLFHPLIEAMHRRGMGRGLAVLLVFGAMIALLVCFAVVGAPYVLQQIEELTTSFPTVMKDVEGTVSKMEWQIQQLPHPFHNQAENWLNHLGKKAGNLLGQMERVIVVLIQSMVLLITVPFLVLYFLKDFDLIERAAWYVTPRKWRPSLKRYVRDVDRSFGRYIRGQLLVALSVAVVSMMALWLIGVPYPILLGGFIGATNIIPYFGAFIGAVPALVFAYFESWPVLLATAIALFLLQQLEGNVLSPLIVGHSLHLHPITIILALLVGVEVGGVIGLILAVPILAVLKVTFIHLRLHVSKVDREV
protein production: failed

MSSCCGPASPASSGPRTRRPRTATAQGDRHLFFAVYTIVPTDAYFGDAAVCFPPARPHMPIRRSLTIALFLLFPALGSGCQSTAPSTSSPSATEDAPAPLIVISIDGLRWDYLDRHEAPALSRIAEDGAHVDHLTPVFPTKTFPNHYSAVTGLYPSRHGIIANTMYDPAMDASFSLSDREAVMNPDWWGGEPIWVTAEQQGRTAATYFWPGSEAPVRGTRPTEWFEYDGSVPGTTRVDQALQWLDRPADTRPDLITLYFSRVDTKGHRHGPRSDSVATALREVDGFIQRLLDGLAARGLADAVNVMVTGDHGMSPTSRDRTIVLDDYIDPDDVRLTARNPVAMMEPRPGIPADSVVTALDQAPHLSAYRRGTLPDTLHFEGHRRIPSVIAVADDRWSIRTQAWMDENPDWTGGGTHGYDPRSENMHTLLAARGPGFRRNTTVDQLSLLHLYELMSALLDVEPAPNDGRLEAARPLLLPASARTAE
protein production: failed

MSRQFIIQLFLALLLCCLTITFSSIAKSAETTSTDDATDLVVAQKIIKNQQQTEKSSSASAVAVQQPQIANDMADGQSIRNLPSLNEPVIDQANLLSSEQRQALSDQIRQLYQTGKAQMAVVIVPTTGQEDIFDYAMRVGEKWQLGSAKRDNGILMAIAVNDRRIQILTGYGLEGVLPDIVVGRIIRDQITPYFKQAQYAQGIQSGVNEIEKIVNMDPEIAQQAAQDLKQRQEQALHEQQARSQMMVYSLIIVVVGIFASYIVGNRLSAATAGVAGIAAGVISGVGLITSLLIGLGIFLLLITSLAQLILQIFASGGGRGGGGGFGGGGGGGYSGGGGSFGGGGASGSW
protein production: failed

MASQITGSFTSLTKLITAGSYLAGLGFSIGAIMKFKQHKDNPTQIPIGTPIALIFIAAALLFLPSILGVAGVTMFGGSGGKTAGPTGTIYKTN
protein production: failed

MMVPDVSNFAVILTTSGAILLIAYLTAISARDVIRLLISLELMFAAVFLAIVPLFSINPPMAYAVAIITAFTSSTELMVLVTAIILLDRRKRGIDVDKVAVGGDSL
protein production: failed

MPTFLLVNDDGYFSPGINALREALKSLGRVVVVAPDRNLSGVGHSLTFTEPLKMRKIDTDFYTVIDGTPADCVHLGYRVILEEKKPDLVLSGINEGPNLGEDITYSGTVSGAMEGRILGIPSIAFSAFGRENIMFEEIAKVCVDIVKKVLNEGIPEDTYLNVNIPNLRYEEIKGIKVTRQGKRAYKERVFKYIDPYGKPFYWIAAEEFGWHAEEGTDYWAVLNGYVSVTPLHLDLTNYKVMKSIKYLEDSP
protein production: not failed
